{"source": "the supplement of paper PMC10567573", "parents": {"B1": {"name": "PPEF2 (parent)", "chain": "DHSGFISLDEFRQTWKLFSSHMNI"}}}
{"variants_of": "B1", "experiment": "protein stability index of a GFP-peptide fusion (GPS, HEK-293T) (PSI 1-6); higher = more stable", "conditions": "c terminus: a fixed tail appended"}
{"variant": "DHCGFISLDEFRQTWKLFSSHMNI", "note": "[S3C]", "protein stability index": 1.81}
{"variant": "DHSGFISLDEFPQTWKLFSSHMNI", "note": "[R12P]", "protein stability index": 1.61}
{"variant": "DHSGFISLDEFRQTWKHFSSHMNI", "note": "[L17H]", "protein stability index": 1.66}
{"variant": "DHSGFISLDEFRQTWKAFSSHMNI", "note": "[L17A]", "protein stability index": 2.07}
{"variant": "DHSGFISLDEFRQEWKLFSSHMNI", "note": "[T14E]", "protein stability index": 1.87}
{"variant": "DHEGFISLDEFRQTWKLFSSHMNI", "note": "[S3E]", "protein stability index": 2.17}
{"variant": "DHSGFISLDEFRQTWKLFSTHMNI", "note": "[S20T]", "protein stability index": 1.85}
{"variant": "DHSGTISLDEFRQTWKLFSSHMNI", "note": "[F5T]", "protein stability index": 1.54}
{"variant": "DHSVFISLDEFRQTWKLFSSHMNI", "note": "[G4V]", "protein stability index": 3.22}
{"variant": "DHSGFISLDEFRQTCKLFSSHMNI", "note": "[W15C]", "protein stability index": 2.39}
{"variant": "DHSGFISLDEFRQTWKLFKSHMNI", "note": "[S19K]", "protein stability index": 1.85}
{"variant": "DHSGFISCDEFRQTWKLFSSHMNI", "note": "[L8C]", "protein stability index": 1.71}
{"variant": "DHSGFISLDLFRQTWKLFSSHMNI", "note": "[E10L]", "protein stability index": 2.49}
{"variant": "DHSGFISLDTFRQTWKLFSSHMNI", "note": "[E10T]", "protein stability index": 2.37}
{"variant": "DTSGFISLDEFRQTWKLFSSHMNI", "note": "[H2T]", "protein stability index": 1.72}
{"variant": "DHSGFISLDEFRQTWKLFSSHMVI", "note": "[N23V]", "protein stability index": 3.85}
{"variant": "DHSGFISLDEFRQTWHLFSSHMNI", "note": "[K16H]", "protein stability index": 1.74}
{"variant": "DHSGFISLDEFRQTWKLHSSHMNI", "note": "[F18H]", "protein stability index": 1.55}
{"variant": "DHSGDISLDEFRQTWKLFSSHMNI", "note": "[F5D]", "protein stability index": 1.41}
{"variant": "DHSGFISLDEFRQTWKWFSSHMNI", "note": "[L17W]", "protein stability index": 1.29}
{"variant": "DHSGFIILDEFRQTWKLFSSHMNI", "note": "[S7I]", "protein stability index": 2.44}
{"variant": "DHSGFISLDEFRQTWKLFESHMNI", "note": "[S19E]", "protein stability index": 1.3}
{"variant": "DHSGFISLDEYRQTWKLFSSHMNI", "note": "[F11Y]", "protein stability index": 2.19}
{"variant": "DHSGFISLDEFRQTWELFSSHMNI", "note": "[K16E]", "protein stability index": 1.73}
{"variant": "DHSGFISLDEFRQTWKLFSSKMNI", "note": "[H21K]", "protein stability index": 1.63}
{"variant": "DHSGFIMLDEFRQTWKLFSSHMNI", "note": "[S7M]", "protein stability index": 2.3}
{"variant": "RHSGFISLDEFRQTWKLFSSHMNI", "note": "[D1R]", "protein stability index": 1.95}
{"variant": "DHSGFPSLDEFRQTWKLFSSHMNI", "note": "[I6P]", "protein stability index": 2.02}
{"variant": "DHSGFFSLDEFRQTWKLFSSHMNI", "note": "[I6F]", "protein stability index": 1.03}
{"variant": "DHSGFISLDEWRQTWKLFSSHMNI", "note": "[F11W]", "protein stability index": 1.64}
{"variant": "DHSGFISLDEFRQTWKLFSSHMWI", "note": "[N23W]", "protein stability index": 2.08}
{"variant": "DHSGGISLDEFRQTWKLFSSHMNI", "note": "[F5G]", "protein stability index": 2.5}
{"variant": "DHSGFISLDEFRQTWKEFSSHMNI", "note": "[L17E]", "protein stability index": 2.11}
{"variant": "DHSGFISLDEFRQCWKLFSSHMNI", "note": "[T14C]", "protein stability index": 2.88}
{"variant": "NHSGFISLDEFRQTWKLFSSHMNI", "note": "[D1N]", "protein stability index": 3.49}
{"variant": "DHSGFISLDEFRQTWKLLSSHMNI", "note": "[F18L]", "protein stability index": 1.46}
{"variant": "DHSGFISLDEFRQTWKLFSSVMNI", "note": "[H21V]", "protein stability index": 2.84}
{"variant": "DHSGFISLDEFRQTWKLISSHMNI", "note": "[F18I]", "protein stability index": 2.51}
{"variant": "DHSMFISLDEFRQTWKLFSSHMNI", "note": "[G4M]", "protein stability index": 1.65}
{"variant": "DHSGFISLDEFRQTWKLFSSGMNI", "note": "[H21G]", "protein stability index": 2.22}
{"variant": "DHSGFISLVEFRQTWKLFSSHMNI", "note": "[D9V]", "protein stability index": 2.94}
{"variant": "DHSGFISLDEFRQTWKLFSSHMNR", "note": "[I24R]", "protein stability index": 1.63}
{"variant": "DHSGFISIDEFRQTWKLFSSHMNI", "note": "[L8I]", "protein stability index": 2.24}
{"variant": "VHSGFISLDEFRQTWKLFSSHMNI", "note": "[D1V]", "protein stability index": 2.56}
{"variant": "DHSGFISLDEFRQTWCLFSSHMNI", "note": "[K16C]", "protein stability index": 2.15}
{"variant": "DHSHFISLDEFRQTWKLFSSHMNI", "note": "[G4H]", "protein stability index": 2.28}
{"variant": "DHSGFISLDEARQTWKLFSSHMNI", "note": "[F11A]", "protein stability index": 1.32}
{"variant": "DHSGFISLDEFRQTWKLFSIHMNI", "note": "[S20I]", "protein stability index": 2.75}
{"variant": "DHSGFISLDEFRQTWKLFSSHMSI", "note": "[N23S]", "protein stability index": 2.26}
{"variant": "DHMGFISLDEFRQTWKLFSSHMNI", "note": "[S3M]", "protein stability index": 1.69}
{"variant": "DHSGFISLDEFRQTWKLFSSHMTI", "note": "[N23T]", "protein stability index": 2.83}
{"variant": "DHSGFISLDEFRQTDKLFSSHMNI", "note": "[W15D]", "protein stability index": 2.3}
{"variant": "DDSGFISLDEFRQTWKLFSSHMNI", "note": "[H2D]", "protein stability index": 1.86}
{"variant": "WHSGFISLDEFRQTWKLFSSHMNI", "note": "[D1W]", "protein stability index": 2.08}
{"variant": "DHSGFISLDEFRQTKKLFSSHMNI", "note": "[W15K]", "protein stability index": 2.36}
{"variant": "DHSGFISLDEFRQTWKLFYSHMNI", "note": "[S19Y]", "protein stability index": 1.7}
{"variant": "DHSGFISLDEFRQTWKLFSSYMNI", "note": "[H21Y]", "protein stability index": 1.49}
{"variant": "DHSGFISRDEFRQTWKLFSSHMNI", "note": "[L8R]", "protein stability index": 1.93}
{"variant": "SHSGFISLDEFRQTWKLFSSHMNI", "note": "[D1S]", "protein stability index": 4.12}
{"variant": "DHSRFISLDEFRQTWKLFSSHMNI", "note": "[G4R]", "protein stability index": 1.87}
{"variant": "DHSGFISLDEFRQTWKLFPSHMNI", "note": "[S19P]", "protein stability index": 1.82}
{"variant": "DHSGFISLDEFRQTWKLYSSHMNI", "note": "[F18Y]", "protein stability index": 2.56}
{"variant": "DHSGFISLDEFRQTWSLFSSHMNI", "note": "[K16S]", "protein stability index": 1.81}
{"variant": "DHSGFISYDEFRQTWKLFSSHMNI", "note": "[L8Y]", "protein stability index": 1.87}
{"variant": "DHSGFISLDEFRRTWKLFSSHMNI", "note": "[Q13R]", "protein stability index": 2.03}
{"variant": "DHSGFISLDEFRQSWKLFSSHMNI", "note": "[T14S]", "protein stability index": 2.14}
{"variant": "DHSGFISLDEFRQTWKLFSSHMNE", "note": "[I24E]", "protein stability index": 1.99}
{"variant": "DFSGFISLDEFRQTWKLFSSHMNI", "note": "[H2F]", "protein stability index": 1.9}
{"variant": "DHSGFISLDEFRQTWKLFASHMNI", "note": "[S19A]", "protein stability index": 1.56}
{"variant": "PHSGFISLDEFRQTWKLFSSHMNI", "note": "[D1P]", "protein stability index": 2.12}
{"variant": "DHSGFISLDEFRITWKLFSSHMNI", "note": "[Q13I]", "protein stability index": 3.27}
{"variant": "DHSGFISLDWFRQTWKLFSSHMNI", "note": "[E10W]", "protein stability index": 1.87}
{"variant": "DHSGFISLDEFRQPWKLFSSHMNI", "note": "[T14P]", "protein stability index": 2.17}
{"variant": "EHSGFISLDEFRQTWKLFSSHMNI", "note": "[D1E]", "protein stability index": 1.4}
{"variant": "DHSGFISLDEFRQTLKLFSSHMNI", "note": "[W15L]", "protein stability index": 1.88}
{"variant": "DHSGFISLDEFRQTWKLFSSFMNI", "note": "[H21F]", "protein stability index": 2.27}
{"variant": "DHSGFISLDIFRQTWKLFSSHMNI", "note": "[E10I]", "protein stability index": 1.58}
{"variant": "DHSGFISLDEFTQTWKLFSSHMNI", "note": "[R12T]", "protein stability index": 2.98}
{"variant": "DHSGFISLDEFRQTWKLFSSDMNI", "note": "[H21D]", "protein stability index": 1.91}
{"variant": "DHSGFISLCEFRQTWKLFSSHMNI", "note": "[D9C]", "protein stability index": 2.73}
{"variant": "DHSGLISLDEFRQTWKLFSSHMNI", "note": "[F5L]", "protein stability index": 1.92}
{"variant": "DMSGFISLDEFRQTWKLFSSHMNI", "note": "[H2M]", "protein stability index": 3.51}
{"variant": "DHSGQISLDEFRQTWKLFSSHMNI", "note": "[F5Q]", "protein stability index": 1.73}
{"variant": "DHSGFIKLDEFRQTWKLFSSHMNI", "note": "[S7K]", "protein stability index": 1.69}
{"variant": "DHSGFISLDEFRQTWKLFSSHRNI", "note": "[M22R]", "protein stability index": 1.91}
{"variant": "DHSGFISLDEFRMTWKLFSSHMNI", "note": "[Q13M]", "protein stability index": 3.2}
{"variant": "DHSGFISLDEFRQTWKLFSSHHNI", "note": "[M22H]", "protein stability index": 1.61}
{"variant": "DHSGFISLDGFRQTWKLFSSHMNI", "note": "[E10G]", "protein stability index": 1.26}
{"variant": "CHSGFISLDEFRQTWKLFSSHMNI", "note": "[D1C]", "protein stability index": 2.13}
{"variant": "DHSGFISLDEFRQTWKLDSSHMNI", "note": "[F18D]", "protein stability index": 2.57}
{"variant": "DHSGFISLDEFRQTWKLFSFHMNI", "note": "[S20F]", "protein stability index": 2.44}
{"variant": "DHSGFISLDEFRQTAKLFSSHMNI", "note": "[W15A]", "protein stability index": 1.67}
{"variant": "DHSGFISLDEFRQFWKLFSSHMNI", "note": "[T14F]", "protein stability index": 1.83}
{"variant": "DHSGFISLDEFRQTWKLFMSHMNI", "note": "[S19M]", "protein stability index": 1.78}
